Article PMC9519624

Molecular target: IPO11 (Importin-11) (UniProt Q9UI26)
Test: co-immunoprecipitation, western blot
Conditions: reference: wild-type RPRM; sites S98

binding against the reference: stronger
Substance: RPRM (Reprimo) (from UniProt Q9NS64) RPRM S98A
